Results on five molecules are retold here after patent US20240343803A1 (SHANDONG SIMCERE BIOPHARMACEUTICAL, published 2024).

Assay [1] has as its target T1, full-length cynomolgus monkey TIGIT on CHO-K1 cells (CHO-K1 cynomolgus monkey TIGIT) (cynomolgus monkey).
T1 construct: NCBI XP_015300911.1; also called cynomolgus monkey TIGIT cells
The assay is described as follows: cell ELISA. Here is the method: (§1) After discarding the culture supernatant, the cells were fixed with a cell fixation solution (Beyotime, CAT #P0098), 50 μL/well, at room temperature for 1 hour. After washing once with 0.05% Tween 20-PBS on the Microplate Washer, the plate was added with 5% skim milk powder-PBS, 250 μL/well, and incubated at 37° C. for 2-4 hours. After washing 3 times with 0.05% Tween 20-PBS on the Microplate Washer, the plate was added with purified mouse monoclonal antibodies (diluted to 13 nM with 1% BSA, diluted by 3 fold serial dilution for 12 concentration points), 50 µL/well, incubated at 37° C. for 1.5-2 hours. […] After washing 3 times with 0.05% Tween 20-PBS on the Microplate Washer, the plate was added with TMB chromogenic solution (KPL, CAT #52-00-03), 50 μL/well, and incubated at 37° C. for 10 minutes. 1M HCL, 50 μL/well, was then added into the plate to terminate the reaction, and the OD450 nm was read by a microplate reader (Biotek, Powerwave HT). […] (c) The effect of anti-TIGIT mouse monoclonal antibodies blocking the interaction between Bio-CD155-His and CHO-K1 human TIGIT detected by FACS
For orientation: ELISA stands for enzyme-linked immunosorbent assay.

Assay [2] concerns the target T2, human TIGIT ECD-hFc (fusion protein of extracellular domain of human TIGIT and human IgG1 Fc fragment) (human).
T2 construct: entry includes the signal peptide, limits not readable here
As to the kind of experiment: cell ELISA, competition: hTIGIT ECD-hFc to CHO-K1 CD155. The protocol:
After discarding the culture supernatant, the cells were fixed with a cell fixation solution (Beyotime, CAT #P0098), 50 μL/well, at room temperature for 1 hour. After washing once with 0.05% Tween 20-PBS on the Microplate Washer, the plate was added with 5% skim milk powder-PBS, 250 μL/well, and incubated at 37° C. for 2-4 hours. The plate was then washed 3 times with 0.05% Tween 20-PBS on the Microplate Washer. The mouse monoclonal antibodies were mixed with human TIGIT ECD-hFc (working concentration: 30 ng/mL) and incubated for 0.5 hour. The mixed solution of antigen and antibody was added to the cell plate (50 μL/well). The cells were incubated at 37° C. for 1.5-2 hours and then washed with 0.05% Tween 20-PBS for 3 times on the Microplate Washer. The cell plate was then added with 50 μL/well HRP enzyme-labeled antibodies (Merck, CAT #AP113P) diluted with 1% BSA (Sangon Biotech, CAT #A500023-0100)-PBS at a dilution ratio of 1:5000 and incubated at 37° C. for 1 hour. After washing 3 times with 0.05% Tween 20-PBS on the Microplate Washer, the plate was added with TMB chromogenic solution (KPL, CAT #52-00-03), 50 μL/well, and incubated at 37° C. for 10 minutes. 1M HCL, 50 μL/well, was then added into the plate to terminate the reaction, and the OD450 nm was read by a microplate reader (Biotek, Powerwave HT).

Assay [3] addresses T3, human TIGIT ECD-his (fusion protein of extracellular domain of human TIGIT and His-tag) (human).
T3 construct: entry includes the signal peptide, limits not readable here
T3 chain: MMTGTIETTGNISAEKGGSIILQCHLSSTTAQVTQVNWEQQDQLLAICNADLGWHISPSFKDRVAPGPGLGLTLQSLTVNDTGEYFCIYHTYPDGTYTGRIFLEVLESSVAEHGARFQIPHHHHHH
As to the kind of experiment: BIAcore kinetics.

Assay [4] deals with T4, cynomolgus monkey TIGIT ECD-hFc (extracellular domain of cynomolgus monkey TIGIT and human IgG1 Fc fragment) (cynomolgus monkey).
T4 construct: entry includes the signal peptide, limits not readable here; also called cynomolgus monkey TIGIT-hFc
As to the kind of experiment: ELISA.

Assay [5] addresses T2, human TIGIT ECD-hFc (fusion protein of …). As to the kind of experiment: ELISA.
Assay [6] deals with T5, full-length human TIGIT on CHO-K1 cells (CHO-K1 human TIGIT) (human, UniProt Q495A1 22-244).
T5 construct: NCBI XP_024309156.1; entry includes the signal peptide; also called high expression strain 1D2; medium expression strain 2D10
T5 sequence: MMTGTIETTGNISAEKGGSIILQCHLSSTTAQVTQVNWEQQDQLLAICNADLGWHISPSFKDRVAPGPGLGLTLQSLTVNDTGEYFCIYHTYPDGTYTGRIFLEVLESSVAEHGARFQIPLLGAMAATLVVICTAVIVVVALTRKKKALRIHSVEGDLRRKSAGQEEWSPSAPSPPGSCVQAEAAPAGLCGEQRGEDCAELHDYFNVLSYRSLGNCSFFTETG
As to the kind of experiment: cell ELISA, low expression strain. The protocol: as §1

Assay [7] addresses T5, full-length human TIGIT on CHO-K1 cells …. As to the kind of experiment: cell ELISA, high expression strain. The protocol: as §1
For assay [8] the target is unchanged. As to the kind of experiment: cell ELISA, medium expression strain. Here is the method: as §1
Assay [9] has the same target. The assay is described as follows: FACS, competition: Bio-CD155-His to CHO-K1 human TIGIT. The protocol: The collected cells were washed once with PBS (Hyclone, CAT #SH30256), resuspended to 2×10⁵/40 μL with 1% BSA-PBS. The antibodies were diluted to 210 nM with 1% BSA-PBS (diluted by 3-fold serial dilution for 12 concentration points). […] The 40 μL cells were then mixed with 40 μL diluted antibodies and 40 μL diluted Bio-CD155-His, and then incubated at 4° C. for 60 minutes. The cells were washed twice with PBS, resuspended with APC labeled streptavidin (dilution ratio 1:1700, Biolegend, 405243), 100 μL/well, and incubated at 4° C. for 40 minutes. The cell samples were washed twice with PBS, resuspended with 1% BSA-PBS, 100 μL/well and then analyzed by flow cytometry (BD, Canto II). […] (d) The effect of anti-TIGIT mouse monoclonal antibodies blocking the interaction between human TIGIT and CHO-K1 CD155 detected by ELISA
(In general: Flow cytometry measures light scatter and fluorescence of single cells or particles in a stream.)

Changes are numbered by the printed parent chain.

B1: TIGIT-F5-070 (antibody, V domains shown)
VH: QVQLQQPGTELVKPGASVKLSCRASGYTFTNYYMHWVKQRPGRGLEWIGRIDPDSGGSKYNEKFKSKATLTVDKLSSTAYMQLSSLTSEDSAVYYCAREGHYGFYSDYWGQGTTLTVSS
VL: DIQMTQSPASLSASVGETVTITCRVSENIYSYLAWYQQKQGKSPQLLVYNAKTLAEGVPSRFSGSGSGTQFSLKINSLQPEDFGNYYCQHHYGNPLTFGAGTKLDLK
notes: mouse hybridoma antibody; variable domains as printed for TIGIT-CHI-070; tie rests on the number 070 only; also called mouse antibody TIGIT-070
By EC50 is commonly meant the concentration giving half of the maximal effect. The term IC50 denotes the concentration that inhibits the measured activity by half. As usually defined, the Kd is a measure of binding affinity in units of concentration. The term koff denotes the rate constant with which the complex falls apart. For orientation: kon means a measure of how fast the partners come together. On to B1, for which the EC50 was found to be 0.0274 nM in assay [1]; 0.0043 nM in [4]; 0.0039 nM in assay [5]; 0.375 nM in [6]; 0.613 nM in assay [7]; 0.664 nM in [8]. Besides, the IC50 turned out to be 0.136 nM in [2] and 0.34 nM in assay [9]. The same molecule had a Kd in assay [3] of 0.155 nM. The koff in assay [3] is 0.000117 s⁻¹. Moreover, the kon in assay [3] stood at 755000 M⁻¹ s⁻¹.

B2: TIGIT-F2-005 (antibody, V domains shown)
VH: QVQLQQSGAELVRPGTSVKVSCKASGYAFTNYLIEWVKQRPGQGLEWIGVINPGSGGTNYKEKFKGKATLTADKSSSTAYMQLSSLTSEDSAVYFCARGEYFFFDYWGQGTTLTVSS
VL: DIVMTQSHKFMSTSVGDRVSITCKASQHVSNGVAWYQHKPGQSPKLLIYSASYRYTGVPDRFTGTGSGTDFTFTISSVQAEDLAVYYCQQHYNTPHTFGGGTKLEIK
notes: mouse hybridoma antibody; variable domains as printed for TIGIT-CHI-005; tie rests on the number 005 only; also called mouse antibody TIGIT-005
Regarding B2, the EC50 in assay [1] was 0.0778 nM; in [4] it was 0.0147 nM; in assay [5], 0.015 nM; in assay [6], 0.231 nM; in assay [7] it was 0.388 nM; in [8], 0.386 nM. The results for the IC50 in assay [2] and in assay [9] were 0.133 nM and 0.174 nM, respectively. Binding in assay [3] was put at a Kd of 0.0333 nM. In assay [3], this molecule displayed a koff of 4.47e-05 s⁻¹. The molecule further registered a kon in assay [3] of 1.34e+06 M⁻¹ s⁻¹.

B3: TIGIT-F2-002 (antibody, V domains shown)
VH: EVQLQESGPGLAKPSQTLSLACSVTGYSITSDSWNWIRKFPGNKLEYMGYISYSGNTYYNPSLKSRISITRDTSKNQFYLQLNSVTTEDTATYYCARLDFSNYGGAVDYWGQGTSVTVSS
VL: DIVMTQSHTFMSTSVGDRVSITCKASQNVRTAVAWYQQKPGQSPKLMIYSASYRYTGVPDRFTGSGSGTDFTFTISSVQAEDLAVYYCQQYYTTPWTFGGGAKLEIQ
notes: mouse hybridoma antibody; variable domains are those printed for the chimeric TIGIT-CHI-002 built from the mouse antibody; tie rests on the number 002 only; also called mouse antibody TIGIT-002
As to B3, the EC50 came out at 0.11 nM in assay [1]; 0.017 nM in [4]; 0.0171 nM in assay [5]; 0.273 nM in assay [6]; 0.312 nM in assay [7]; 0.316 nM in assay [8]. In addition, the results for the IC50 in assay [2] and in assay [9] were 0.141 nM and 0.204 nM, respectively. Further, the Kd in assay [3] came out at 0.0476 nM. Further, the koff in assay [3] came to 8.08e-05 s⁻¹. For the same molecule, the kon in assay [3] is 1.7e+06 M⁻¹ s⁻¹.

B4: TIGIT-F2-006 (antibody, V domains shown)
VH: B3 VH with L18P, A21T, I29M, S33Y, N56R, L98G, F100Y, V107M, D108Y, Y109D
VL: DIVMTQSHKFMSTSVGDRVSITCRASQGVSTTIAWYQQKPGQSPKLLIYSASYRYTGVPDRFTGSGSGTDFTFTISGVQAEDLAVYYCQQYYSSPFTFGGGTKLEIK
notes: mouse hybridoma antibody; variable domains as printed for TIGIT-CHI-006; tie rests on the number 006 only; also called mouse antibody TIGIT-006
Consider B4, for which the EC50 in [1] came to 0.0616 nM; in assay [4] it was 0.0327 nM; in [5] it was 0.0208 nM; in [6], 0.32 nM; in assay [7] it was 0.48 nM; in assay [8], 0.54 nM. Besides, the IC50 in assay [2] was 0.15 nM; in [9] it was 0.215 nM. This molecule also yielded a Kd in [3] of 0.0414 nM. In assay [3], the koff is 3.32e-05 s⁻¹. In addition, in assay [3], the kon was found to be 800000 M⁻¹ s⁻¹.

B5: RG6058-mIgG2a (antibody, V domains shown)
VH: EVQLQQSGPGLVKPSQTLSLTCAISGDSVSSNSAAWNWIRQSPSRGLEWLGKTYYRFKWYSDYAVSVKGRITINPDTSKNQFSLQLNSVTPEDTAVFYCTRESTTYDLLAGPFDYWGQGTLVTVSS
VL: not shown
notes: mouse IgG2a format by its name; also called Roche RG6058; control antibody RG6058
In the case of B5, the EC50 in assay [1] was 0.0791 nM; in assay [4], 0.0152 nM; in [5] it was 0.0108 nM; in assay [6] it was 0.672 nM; in [7] it was 1.05 nM; in assay [8] it was 0.984 nM. Further, the IC50 in assay [2] turned out to be 0.212 nM; in [9], 0.449 nM. For the same molecule, the Kd in assay [3] came out at 0.211 nM. The molecule also had a koff in [3] of 0.000141 s⁻¹. Moreover, the kon in [3] turned out to be 669000 M⁻¹ s⁻¹.
